Results taken from article PMC8856988.

Columns and labels:
[1] = target: Skeletal muscle myosin (rabbit) (rabbit); experiment: BLI; SkM immobilised on Octet Red Amine Reactive Second-Generation Biosensor; FXI or PK in solution; 30 mM Hepes, pH 7.4, 0.01% Tween-20, 0.1% PEG, 50 mM NaCl, 30 °C
[2] = target: Skeletal muscle myosin (rabbit) (rabbit); experiment: ELISA; SkM immobilised on microtiter plate; diluted pooled plasma (endogenous FXI) in 30 mM Hepes, pH 7.4, 130 mM NaCl, 2 h, room temperature; bound FXI detected with anti-FXI mAb AHXI-5061, calculated from the curve of purified FXI; apparent
[3] = target: Skeletal muscle myosin (rabbit) (rabbit); experiment: ELISA; SkM (10 μg/ml, sodium bicarbonate pH 9.3) immobilised on microtiter plate, blocked with 0.5% BSA; purified FXI 0–10 nM in 30 mM Hepes, pH 7.4, 130 mM NaCl, 2 h, room temperature; bound FXI detected with anti-FXI mAb AHXI-5061 and HRP-goat antimouse; apparent

Sequence of Skeletal muscle myosin (rabbit) (rabbit) (Q28641 whole entry, chain 1 of 3): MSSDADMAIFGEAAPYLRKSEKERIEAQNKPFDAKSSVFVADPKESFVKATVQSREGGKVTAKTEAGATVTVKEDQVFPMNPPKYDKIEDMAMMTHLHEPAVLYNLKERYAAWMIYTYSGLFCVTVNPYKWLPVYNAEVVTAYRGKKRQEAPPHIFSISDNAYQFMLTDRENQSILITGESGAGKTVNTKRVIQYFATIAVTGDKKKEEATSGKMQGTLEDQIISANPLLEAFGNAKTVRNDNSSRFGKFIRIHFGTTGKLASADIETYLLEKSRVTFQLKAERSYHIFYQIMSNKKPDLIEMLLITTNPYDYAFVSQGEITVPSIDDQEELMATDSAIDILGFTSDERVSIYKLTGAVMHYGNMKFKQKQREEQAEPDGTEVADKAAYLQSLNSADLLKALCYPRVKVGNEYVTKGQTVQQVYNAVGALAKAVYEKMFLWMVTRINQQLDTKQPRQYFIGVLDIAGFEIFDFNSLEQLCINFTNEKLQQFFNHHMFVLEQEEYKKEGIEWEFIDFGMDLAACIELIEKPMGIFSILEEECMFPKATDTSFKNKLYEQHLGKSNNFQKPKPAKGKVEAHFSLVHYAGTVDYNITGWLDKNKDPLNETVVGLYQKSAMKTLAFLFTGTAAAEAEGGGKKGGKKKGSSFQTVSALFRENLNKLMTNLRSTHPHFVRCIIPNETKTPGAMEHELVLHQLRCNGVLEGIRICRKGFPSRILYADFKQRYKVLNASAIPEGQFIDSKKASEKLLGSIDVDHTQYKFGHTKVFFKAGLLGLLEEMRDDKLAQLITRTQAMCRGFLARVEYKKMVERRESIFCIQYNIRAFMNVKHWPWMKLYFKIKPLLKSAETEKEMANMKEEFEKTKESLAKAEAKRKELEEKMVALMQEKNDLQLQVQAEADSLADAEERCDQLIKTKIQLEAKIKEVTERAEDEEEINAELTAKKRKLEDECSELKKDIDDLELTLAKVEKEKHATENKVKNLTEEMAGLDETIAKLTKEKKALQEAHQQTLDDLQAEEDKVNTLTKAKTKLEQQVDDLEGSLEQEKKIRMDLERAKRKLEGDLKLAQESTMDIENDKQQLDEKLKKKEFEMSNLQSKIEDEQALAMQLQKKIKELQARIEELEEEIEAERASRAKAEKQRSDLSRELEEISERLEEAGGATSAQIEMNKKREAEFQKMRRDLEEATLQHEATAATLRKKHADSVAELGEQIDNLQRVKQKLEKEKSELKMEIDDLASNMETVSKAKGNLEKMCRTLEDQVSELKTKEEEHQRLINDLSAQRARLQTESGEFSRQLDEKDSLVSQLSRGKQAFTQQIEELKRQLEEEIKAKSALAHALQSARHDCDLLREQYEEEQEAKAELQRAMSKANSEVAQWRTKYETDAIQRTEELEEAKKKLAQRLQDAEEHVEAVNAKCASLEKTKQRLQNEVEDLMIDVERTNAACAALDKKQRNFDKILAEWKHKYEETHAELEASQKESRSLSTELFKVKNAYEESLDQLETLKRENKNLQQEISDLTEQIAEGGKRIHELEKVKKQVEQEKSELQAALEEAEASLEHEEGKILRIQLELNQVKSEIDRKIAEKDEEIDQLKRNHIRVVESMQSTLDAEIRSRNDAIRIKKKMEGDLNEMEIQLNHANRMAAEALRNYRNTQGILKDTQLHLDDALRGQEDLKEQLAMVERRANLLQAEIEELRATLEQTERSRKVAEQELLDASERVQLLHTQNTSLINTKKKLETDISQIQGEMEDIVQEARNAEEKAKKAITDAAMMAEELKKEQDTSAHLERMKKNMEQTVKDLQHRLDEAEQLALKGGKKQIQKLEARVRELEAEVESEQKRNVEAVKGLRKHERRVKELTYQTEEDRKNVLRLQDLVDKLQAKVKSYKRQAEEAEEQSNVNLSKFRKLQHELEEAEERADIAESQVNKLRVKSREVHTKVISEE
Sequence of Skeletal muscle myosin (rabbit) (rabbit) (P02602 2-192, chain 2 of 3, further chain): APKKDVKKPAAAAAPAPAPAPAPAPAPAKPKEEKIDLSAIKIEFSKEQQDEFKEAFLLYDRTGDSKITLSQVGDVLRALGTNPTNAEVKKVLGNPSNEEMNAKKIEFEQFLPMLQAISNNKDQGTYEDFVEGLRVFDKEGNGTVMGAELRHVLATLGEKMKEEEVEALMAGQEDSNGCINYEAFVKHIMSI
Sequence of Skeletal muscle myosin (rabbit) (rabbit) (P02608 2-170, chain 3 of 3, further chain): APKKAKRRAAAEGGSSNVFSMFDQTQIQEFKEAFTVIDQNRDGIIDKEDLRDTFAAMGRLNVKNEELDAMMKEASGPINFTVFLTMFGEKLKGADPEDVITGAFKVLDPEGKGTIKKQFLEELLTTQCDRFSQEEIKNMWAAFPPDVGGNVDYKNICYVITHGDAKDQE

Kd [1]: 0.2 nM
koff [1]: 0.000795 s⁻¹
kon [1]: 3.87e+06 M⁻¹ s⁻¹
Kd [2]: 0.7 nM
Kd [3]: 1.7 nM
Substance: Coagulation factor XI (natural protein)
